This note sets out measurements from patent publication US20250282866A1 (VIGIL NEUROSCIENCE, published 2025).

To fix the notation:
B1: V4 (antibody, V domains shown)
VH: EVQLVQSGAEVKKPGESLKISCKGSGYSFGSYWIAWVRQMPGKGLEWMGIIYPGDSDTRVSPSFQGQVTISADKSISTAYLQWSSLKASDTAMYFCARSRTFYYDSSDYFDYWGQGTLVTVSS
VL: DIQMTQSPSSVSASVGDRVTITCRASQGISSWLAWYQQKPGKAPKLLIYAASRLQNGVPSRFSGSGSGTDFTLTISSLQPEDFATYFCQQADSYPRTFGQGTKLEIK
B2: V13 (antibody, V domains shown)
VH: B1 VH with V60Y, P62A, S99G
VL: B1 VL with R53S, N56G, Y94M
B3: V41 (antibody, V domains shown)
VH: B1 VH with G30T, I50T, V60Y, S99Q
VL: B1 VL with R53S, Y94F
B4: V52 (antibody, V domains shown)
VH: B1 VH with G30E, V60Y, S99G
VL: B1 VL with R53S, N56R, S93R, Y94F
B5: V37 (antibody, V domains shown)
VH: B1 VH with F29H, G30T, V60Y, Q65A
VL: B1 VL with R53S, N56W
B6: V49 (antibody, V domains shown)
VH: B1 VH with G30N, I50T, V60L
VL: B1 VL with R53S, L54R
B7: V24 (antibody, V domains shown)
VH: B1 VH with G30T, T58V, V60Y
VL: B1 VL with R53S, N56K, Y94F, R96H
B8: V61 (antibody, V domains shown)
VH: B1 VH with G30S, V60Y, S61N, S99G
VL: B1 VL with R53S, Q55V, Y94L
B9: V15 (antibody, V domains shown)
VH: B1 VH with G30A, I50T, V60Y
VL: B1 VL with R53W
B10: V14 (antibody, V domains shown)
VH: B1 VH with S56Q, V60Y, S99G
VL: B1 VL with Y94F
B11: V39 (antibody, V domains shown)
VH: B1 VH with V60Y, S61N, S99G
VL: B1 VL with R53S, Q55V, Y94S
B12: V38 (antibody, V domains shown)
VH: B1 VH with T58V, V60Y, S99Q
VL: B1 VL with R53S, L54R, Y94H
B13: V28 (antibody, V domains shown)
VH: B1 VH with G30Q, I50T, V60Y, S99Q, Y103F
VL: B1 VL with R53S, N56S, Y94L
B14: V60 (antibody, V domains shown)
VH: B1 VH with S28H, G30T, T58V, V60Y, S99Q, F110S
VL: B1 VL with R53S, N56R, Q89G, Y94F
B15: V51 (antibody, V domains shown)
VH: B1 VH with G30T, T58V, V60Y, S99G, Y112N
VL: B1 VL with R53S, L54R, Y94F
B16: V40 (antibody, V domains shown)
VH: B1 VH with T58V, V60Y, S99Q, F110S
VL: B1 VL with R53S, N56L, S93R, Y94F
B17: V36 (antibody, V domains shown)
VH: B1 VH with G30T, I34L, V60Y
VL: B1 VL with R53S, L54R
B18: V25 (antibody, V domains shown)
VH: B1 VH with I50L, V60Y
VL: B1 VL with R53S, Q55A, Y94M
B19: V26 (antibody, V domains shown)
VH: B1 VH with G30T, A35G, I50T, V60Y, S99Q, F102M, Y112A
VL: B1 VL with R53S, N56R
B20: V16 (antibody, V domains shown)
VH: B1 VH with F29M, G30T, S56G, V60Y
VL: B1 VL with R53N, Y94F
B21: V5 (antibody, V domains shown)
VH: B1 VH with G30T, I50T, V60Y, S99Q
VL: B1 VL with R53S, Y94H
B22: V17 (antibody, V domains shown)
VH: B1 VH with V60Y
VL: B1 VL with R53S, L54R, Y94S
B23: V53 (antibody, V domains shown)
VH: B1 VH with G30T, V60Y, S63H, S99Q
VL: B1 VL with R53S, Y94F
B24: V48 (antibody, V domains shown)
VH: B1 VH with T58V, V60Y, S99M
VL: B1 VL with R53S, N56T, Y94L
B25: V29 (antibody, V domains shown)
VH: B1 VH with G30K, V60Y, S99Q
VL: B1 VL with R53S, Y94F
B26: V27 (antibody, V domains shown)
VH: B1 VH with G30T, V60Y, S61A, A97V
VL: B1 VL with R53S, N56R, Y94F
B27: V50 (antibody, V domains shown)
VH: B1 VH with I50V, V60Y, S99Q, F110L
VL: B1 VL with R53S, L54R, Y94L

Substitutions are numbered along the chain they refer to.

The target in one assay is T1, human TREM2 (human, UniProt Q9NZC2 19-174, limits assumed).
T1 construct: also called triggering receptor expressed on myeloid cells 2
T1 sequence: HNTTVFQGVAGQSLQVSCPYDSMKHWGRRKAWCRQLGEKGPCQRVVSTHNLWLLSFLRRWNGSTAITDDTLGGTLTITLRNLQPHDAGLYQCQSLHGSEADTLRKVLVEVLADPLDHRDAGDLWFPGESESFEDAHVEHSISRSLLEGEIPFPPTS
The experiment in a line: 2nd screen 10 nM.
As for B1, the “Binding Signal (fold over 6E7 Parental antibody)” value stood at 5.51 fold.
Still for that read-out and setting: in the case of B2 it was 1.35 fold.
B3: the “Binding Signal (fold over 6E7 Parental antibody)” value worked out at 1.72 fold.
As to B4, the “Binding Signal (fold over 6E7 Parental antibody)” value worked out at 3.09 fold.
With B5, the “Binding Signal (fold over 6E7 Parental antibody)” value came to 3.49 fold.
On to B6, for which the “Binding Signal (fold over 6E7 Parental antibody)” value was 6.58 fold.
With B7, the “Binding Signal (fold over 6E7 Parental antibody)” value is 2.9 fold.
As for B8, the “Binding Signal (fold over 6E7 Parental antibody)” value worked out at 5.22 fold.
With B9, the “Binding Signal (fold over 6E7 Parental antibody)” value was found to be 4.78 fold.
With B10, the “Binding Signal (fold over 6E7 Parental antibody)” value is 4.64 fold.
Take B11: the “Binding Signal (fold over 6E7 Parental antibody)” value was 5.81 fold.
Same read-out and setting: in the case of B12 it was 4.36 fold; in that of B13, 3.61 fold; in that of B14, 3.63 fold.
On the same count and under the same terms, the figure for B15 is 3.18 fold; for B16 it is 4.16 fold; for B17 it is 3.44 fold.
Take B18: the “Binding Signal (fold over 6E7 Parental antibody)” value was 4.7 fold.
As to B19, the “Binding Signal (fold over 6E7 Parental antibody)” value is 3.47 fold.
For B20, the “Binding Signal (fold over 6E7 Parental antibody)” value amounted to 4.04 fold.
Consider B21, for which the “Binding Signal (fold over 6E7 Parental antibody)” value worked out at 2.84 fold.
On to B22, for which the “Binding Signal (fold over 6E7 Parental antibody)” value is 5.51 fold.
For B23, the “Binding Signal (fold over 6E7 Parental antibody)” value is 1.17 fold.
As for B24, the “Binding Signal (fold over 6E7 Parental antibody)” value is 2.54 fold.
B25: the “Binding Signal (fold over 6E7 Parental antibody)” value is 1.67 fold.
On to B26, for which the “Binding Signal (fold over 6E7 Parental antibody)” value amounted to 5.69 fold.
Consider B27, for which the “Binding Signal (fold over 6E7 Parental antibody)” value is 4.16 fold.

For the next assay, the target named is T1, human TREM2. The experiment in a line: 2nd screen 2 nM.
Regarding B1, the “Binding Signal (fold over 6E7 Parental antibody)” value came to 5.88 fold.
For B2, the “Binding Signal (fold over 6E7 Parental antibody)” value came to 1.15 fold.
The same measure, in the same setting: in the case of B3 it was 0.58 fold; in that of B4, 1.78 fold.
The same measure, in the same setting: the figure for B5 is 3.69 fold; for B6 it is 5.02 fold; for B7 it is 1.42 fold.
For B8, the “Binding Signal (fold over 6E7 Parental antibody)” value was determined as 3.63 fold.
Take B9: the “Binding Signal (fold over 6E7 Parental antibody)” value is 4.72 fold.
As for B10, the “Binding Signal (fold over 6E7 Parental antibody)” value came to 2.57 fold.
Same read-out and setting: in the case of B11 it was 5.11 fold.
With B12, the “Binding Signal (fold over 6E7 Parental antibody)” value was determined as 3.44 fold.
On the same count and under the same terms, in the case of B13 it was 2.63 fold.
As to B14, the “Binding Signal (fold over 6E7 Parental antibody)” value was 3.35 fold.
On the same count and under the same terms, in the case of B15 it was 1.83 fold; in that of B16, 3.41 fold.
On the same count and under the same terms, the figure for B17 is 4 fold.
As to B18, the “Binding Signal (fold over 6E7 Parental antibody)” value came out at 3.15 fold.
Consider B19, for which the “Binding Signal (fold over 6E7 Parental antibody)” value was found to be 2.83 fold.
Still for that read-out and setting: the figure for B20 is 3.57 fold; for B21 it is 1.25 fold; for B22 it is 4.22 fold.
Take B23: the “Binding Signal (fold over 6E7 Parental antibody)” value was 0.66 fold.
Turning to B24, the “Binding Signal (fold over 6E7 Parental antibody)” value was found to be 2.3 fold.
For B25, the “Binding Signal (fold over 6E7 Parental antibody)” value was determined as 0.84 fold.
Still for that read-out and setting: in the case of B26 it was 5.67 fold; in that of B27, 3.39 fold.

The next assay has as its target T1, human TREM2. The experiment in a line: 1st screen (110 nM or 10 nM).
As to B1, the “Binding Signal (fold over 6E7 Parental antibody)” value amounted to 6 fold.
Still for that read-out and setting: in the case of B2 it was 1.31 fold; in that of B3, 1.74 fold.
Regarding B4, the “Binding Signal (fold over 6E7 Parental antibody)” value amounted to 3 fold.
On to B5, for which the “Binding Signal (fold over 6E7 Parental antibody)” value turned out to be 3.46 fold.
Consider B6, for which the “Binding Signal (fold over 6E7 Parental antibody)” value was 6.51 fold.
Turning to B7, the “Binding Signal (fold over 6E7 Parental antibody)” value was 2.64 fold.
Take B8: the “Binding Signal (fold over 6E7 Parental antibody)” value worked out at 5.08 fold.
On the same count and under the same terms, in the case of B9 it was 5.23 fold; in that of B10, 4.71 fold.
B11: the “Binding Signal (fold over 6E7 Parental antibody)” value was found to be 6.15 fold.
Turning to B12, the “Binding Signal (fold over 6E7 Parental antibody)” value turned out to be 4.34 fold.
Regarding B13, the “Binding Signal (fold over 6E7 Parental antibody)” value came to 3.08 fold.
B14: the “Binding Signal (fold over 6E7 Parental antibody)” value was determined as 3.26 fold.
Turning to B15, the “Binding Signal (fold over 6E7 Parental antibody)” value is 2.81 fold.
As for B16, the “Binding Signal (fold over 6E7 Parental antibody)” value was determined as 4.48 fold.
Regarding B17, the “Binding Signal (fold over 6E7 Parental antibody)” value is 3.38 fold.
Turning to B18, the “Binding Signal (fold over 6E7 Parental antibody)” value stood at 4.23 fold.
Consider B19, for which the “Binding Signal (fold over 6E7 Parental antibody)” value is 3.57 fold.
The same measure, in the same setting: the figure for B20 is 4.01 fold.
Still for that read-out and setting: in the case of B21 it was 2.73 fold; in that of B22, 5.37 fold.
Take B23: the “Binding Signal (fold over 6E7 Parental antibody)” value is 1.25 fold.
As to B24, the “Binding Signal (fold over 6E7 Parental antibody)” value worked out at 2.42 fold.
Consider B25, for which the “Binding Signal (fold over 6E7 Parental antibody)” value is 1.53 fold.
Turning to B26, the “Binding Signal (fold over 6E7 Parental antibody)” value came out at 5.5 fold.
Take B27: the “Binding Signal (fold over 6E7 Parental antibody)” value was 4.1 fold.
